Patent US20190106493A1 (MABQUEST, published 2019)
Each block holds one binder with its values, some of them ahead of it.

Experiments:
PD-1 Fc fusion protein = molecular target: T1, PD-1 Fc fusion protein (human, UniProt Q15116 25-167, limits assumed); assay: FIG. 5A; Luminex, PD-1 Fc beads, antibody titrated, competitor: fixed biotinylated PD-L1
T1 construct: construct limits, linker and Fc not described; the bead protein is printed only as 'PD-1 Fc fusion protein'; also called human PD-1 Fc fusion protein; PD-1 Fc fusion protein coated beads

[1] = molecular target: endogenous cell surface PD-1 on activated CD4 T cells (human, UniProt Q15116 25-288); assay: cell-based or functional assay
endogenous cell surface PD-1 on activated CD4 T cells, sequence (Q15116 25-288): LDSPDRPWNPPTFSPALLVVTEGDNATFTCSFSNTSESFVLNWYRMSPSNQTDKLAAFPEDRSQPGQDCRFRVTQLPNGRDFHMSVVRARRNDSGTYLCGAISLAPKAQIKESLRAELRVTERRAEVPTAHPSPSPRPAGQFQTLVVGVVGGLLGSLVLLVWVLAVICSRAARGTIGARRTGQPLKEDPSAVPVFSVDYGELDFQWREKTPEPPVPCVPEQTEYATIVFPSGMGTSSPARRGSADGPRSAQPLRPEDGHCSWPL

T1 sequence (Q15116 25-167 limits assumed): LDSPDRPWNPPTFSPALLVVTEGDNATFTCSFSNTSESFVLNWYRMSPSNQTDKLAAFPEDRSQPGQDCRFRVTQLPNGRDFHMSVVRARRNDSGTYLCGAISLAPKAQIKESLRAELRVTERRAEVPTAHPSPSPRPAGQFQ

IC50 (PD-1 Fc fusion protein): ~0.2 nM | EFRA % relative to peptide stimulation alone [1]: 250%
B1: 137F2 (antibody, V domains shown)
VH: QVQLQQPGAELVRPGTSVKMSCKAAGYTFTNYWIGWIKQRPGHGLEWIGDIYPGGGYTNYNEKFKGKATLTADTSSSTAYMQVSSLTSEDTGIYYCARGYDFVLDRWGQGTSVTVSS
VL: DIVMSQSPSSLAVSTGEKVTMTCKSSQSLFNSETQKNYLAWYQQKPGQPPKLLIFWASTRESGVPDRFLGSGSGTDFTLTISSVQAEDLAVYYCKQSYTLRTFGGGTKLEIK

EFRA % relative to peptide stimulation alone [1]: 195%
B2: 135C12 (antibody, V domains shown)
VH: EVQLHQSGPELLKPGASVRMSCKASGYTFTNFYIHWVKQSHGKSIEWIGSIYPNYGDTAYNQKFKDKATLTVDKSSSTAYMALRSLTSEDSAVYYCARGYSYAMDYWGQGTSVTVSS
VL: NIVMTQSPKSMSMSVGERVTLTCKASENVVTYVSWYQQKPEQSPKLLIYGASNRYTGVPDRFTGSGSATDFTLTISSVQAEDLADYHCGQGYSYPYTFGGGTKLEIK
